Drawing on US20250361297A1, “ANTI- SIGLEC-15 BINDING MOLECULES AND METHODS OF USE” (ADAPTAM THERAPEUTICS, S.L., priority 2024, published 2025), this text covers EC50 (read off the curve) for one molecule.

This test concerns the target human Siglec-15, full length, expressed on cells (human) (UniProt Q6ZMC9). The test can be described thus: flow cytometry, THP-1 cells overexpressing human Siglec-15, ADC titrated, anti-human IgG-PE, gMFI. Background: A flow cytometer gives signals particle by particle.

Sequence of human Siglec-15, full length, expressed on cells (human) (Q6ZMC9 20-328 limits assumed): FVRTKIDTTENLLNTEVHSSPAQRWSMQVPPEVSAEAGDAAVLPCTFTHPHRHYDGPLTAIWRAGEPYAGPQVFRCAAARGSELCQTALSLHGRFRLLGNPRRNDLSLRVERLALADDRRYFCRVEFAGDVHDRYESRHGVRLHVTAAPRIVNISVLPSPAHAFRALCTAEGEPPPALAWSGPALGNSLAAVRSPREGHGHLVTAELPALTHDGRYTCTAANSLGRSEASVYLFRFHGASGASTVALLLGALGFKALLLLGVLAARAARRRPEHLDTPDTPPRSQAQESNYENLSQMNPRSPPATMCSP

B1: ZLA-1243-E01-Exatecan (protein)
VH: QVQLVQSGGGLVQPGRSLRLSCAASGFTFDDYAMHWVRQAPGKGLEWVSGISWNSGSIGYADSVKGRFTISRDNAKNSLYLQMNSLRAEDTALYYCAKGLWPSYDLDAFDIWGQGTMVTVSS
VL: QSALTQPASVSGSPGQSITLSCTGTSSDVGAYNFVSWYQQHPGTAPKLMIYEVSNRPSGVSDRFSGSKSGNTASLTISGLQAEDEADYYCSSYTSTIPPFVFGTGTKVTVL
modifications: Antibody-drug conjugate: exatecan payload joined through an MC-GGFG linker. The attachment residues are not stated and the letters cannot carry the payload.
As usually defined, the EC50 (read off the curve) is the midpoint of the concentration-response curve. A high value points to lower potency in that assay. For the molecule B1, the EC50 (read off the curve) was 3 nM.
